Data from US20230391888A1 (Sanofi, published 2023).

T1: human CD123-Fc-His fusion protein (internal source) (human, UniProt P26951 19-305)
T1 construct: not shown: Fc and His tag
T1 sequence (looked up): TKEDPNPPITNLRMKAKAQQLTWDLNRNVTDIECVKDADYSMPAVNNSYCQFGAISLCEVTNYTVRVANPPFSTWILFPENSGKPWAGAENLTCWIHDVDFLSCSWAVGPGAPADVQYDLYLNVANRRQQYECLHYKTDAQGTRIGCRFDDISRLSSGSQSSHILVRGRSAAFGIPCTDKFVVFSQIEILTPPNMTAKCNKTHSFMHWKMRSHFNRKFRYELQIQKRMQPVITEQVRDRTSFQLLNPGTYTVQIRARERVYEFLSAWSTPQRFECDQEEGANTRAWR


Tests used:
[1] = molecular target: T2, human IL13 (IL012, Millipore) (human, UniProt P35225 35-146); experiment: SPR, BIAcore 3000; antibody captured by anti-human Fc, antigen as analyte
Protocol: (§1) Surface plasmon resonance (SPR) was used to assess the binding of antigens to antibody. Binding of antigens to the antibody constructs was measured using surface plasmon resonance (SPR) with a BIAcore 3000 instrument (GE Healthcare) with HBS-EP buffer (GE Healthcare). Human IL4 (IL004, Millipore) and human IL13 (IL012, Millipore), human HER2 (1129-ER, R&D Systems), human TNFa (H8916, SIGMA Aldrich), human CTLA4 (CT4-H5229, ACRO Biosystems), human PD-1 (8986-PD, R&D Systems), and human IL6Ra (227-SR/CF, R&D Systems) were used as antigens. The anti-human Fc capture antibody (human antibody capture kit, GE Life Sciences) was immobilized via primary amine groups (11000 RU) on a research grade CM5 chip (GE Life Sciences) using standard procedures. […] Binding tests with HER2 was performed by capture of the antigen with the anti-human Fc antibody. The tested antibody constructs were used as analytes and injected at 100 nM concentration for 240 sec with a dissociation time of 300 sec at a flow rate of 30 μL/min. Binding kinetics measurements were done using the captured antibodies with injects of two-fold serial dilutions of the analytes of 3 nM to 100 nM. […] Chip surfaces were regenerated with 2 min injects of the regeneration buffer provided with the capture kit. Sensorgrams were double referenced with a blank chip surface and HBS-EP buffer blanks. Data analysis was performed using the BIAevaluation software v4.1.

[2] = molecular target: T2, human IL13 (IL012, Millipore); experiment: SPR, BIAcore 3000; antibody captured by anti-human Fc, antigen as analyte; column head says nM, but kd/ka gives M
Protocol: as §1

[3] = molecular target: T1, human CD123-Fc-His fusion protein …; experiment: SPR, Biacore 8K; CD123-Fc-His captured by anti-His, antibody as analyte, 1:1 Langmuir fit
Protocol: Binding of antigens to the antibody constructs was measured using surface plasmon resonance (SPR) with a BIAcore 8K instrument (GE Healthcare) with HBS-EP+ buffer (GE Healthcare). For binding kinetics and affinity determination human CD3εδ-Fc-His and human CD123-Fc-His fusion proteins (both from internal source) were used as antigens. The anti-His capture antibody (His capture kit, GE Life Sciences) was immobilized via primary amine groups (11000 RU) on a research grade CM5 chip (GE Life Sciences) using standard procedures. Antigens were captured by the anti-His capture chip surface at a flow rate of 10 μL/min for 90 sec to reach antibody binding levels between 10 and 30 RU. […] Dissociation was measured at 30 μL/min by injection of HBS-EP+ buffer for 1200 sec. The chip surface was regenerated by inject of regeneration buffer (His capture kit, GE Life Sciences). Sensorgrams were double referenced with a blank chip surface and H BS-EP+ buffer blanks. Data were fitted with a 1:1 Langmuir binding model for determination of kinetic and affinity constants ka, kd and KD using Biacore 8K Evaluation software v1.11.7442 (GE Healthcare).

[4] = molecular target: CD123 on THP-1 target cells (UniProt P26951 19-378, limits assumed); experiment: cell-based or functional assay
[5] = molecular target: T3, human HER2 (1129-ER, R&D Systems) (human, UniProt P04626 23-652); experiment: SPR; HER2 captured with the anti-human Fc antibody, antibody constructs as analytes (method in paragraph 368); FIG. 5A-5B
T3 construct: also called Receptor tyrosine-protein kinase erbB-2
Protocol: as §1

T2 sequence (P35225 35-146 limits assumed): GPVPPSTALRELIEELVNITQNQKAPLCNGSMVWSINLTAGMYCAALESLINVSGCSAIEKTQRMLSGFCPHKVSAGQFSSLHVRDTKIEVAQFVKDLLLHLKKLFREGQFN

| Kd [3] [nM] | binding result [5] | Binder | other results |
| --- | --- | --- | --- |
| – | – | IL13 mAb (ID 3, anti-IL13-VL3-IGKC / anti-IL13-VH2-IGHG1) (antibody, human IgG1, kappa, V domains shown, also called IL13mAb-huIgG1) VH: EVQLKESGPGLVAPGGSLSITCTVSGFSLTDSSINWVRQPPGKGLEWLGMIWGDGRIDYADALKSRLSISKDSSKSQVFLEMTSLRTDDTATYYCARDGYFPYAMDFWGQGTSVTVSS VL: DIVLTQSPASLAVSLGQRATISCRASESVDSYGQSYMHWYQQKAGQPPKLLIYLASNLESGVPARFSGSGSRTDFTLTIDPVQAEDAATYYCQQNAEDSRTFGGGTKLEIKR | koff [1]: 3.46e-05 s⁻¹; kon [1]: 1.28e+06 M⁻¹ s⁻¹; Kd [2]: 0.0269 nM |
| 0.332 | – | anti-CD3ε-dsTrasKO2 × anti-CD123 (ID 38, alternative anti-CD3ε binding domain) (bispecific antibody, human IgG1, kappa, L234A L235A) light 1: not shown heavy 1: not shown heavy 2: EVQLQQSGPELVKPGASVKMSCKASGYTFTDYYMKWVKQSHGKSLEWIGDIIPSNGATFYNQKFKGKATLTVDRSSSTAYMHLNSLTSEDSAVYYCTRSHLLRASWFAYWGQGTLVTVSAASTKGPSVFPLAPSSKSTSGGTAALGCLVKDYFPEPVTVSWNSGALTSGVHTFPAVLQSSGLYSLSSVVTVPSSSLGTQTYICNVNHKPSNTKVDKKVEPKSCDKTHTCPPCPAPEAAGGPSVFLFPPKPKDTLMISRTPEVTCVVVDVSHEDPEVKFNWYVDGVEVHNAKTKPREEQYNSTYRVVSVLTVLHQDWLNGKEYKCKVSNKALPAPIEKTISKAKGQPREPQVCTLPPSRDELTKNQVSLSCAVKGFYPSDIAVEWESNGQPENNYKTTPPVLDSDGSFFLVSKLTVDKSRWQQGNVFSCSVMHEALHNRFTQKSLSLSPG light 2: DFVMTQSPSSLTVTAGEKVTMSCKSSQSLLNSGNQKNYLTWYLQKPGQPPKLLIYWASTRESGVPDRFTGSGSGTDFTLTISSVQAEDLAVYYCQNDYSYPYTFGGGTKLEIKRTVAAPSVFIFPPSDEQLKSGTASVVCLLNNFYPREAKVQWKVDNALQSGNSQESVTEQDSKDSTYSLSSTLTLSKADYEKHKVYACEVTHQGLSSPVTKSFNRGEC | Cytotox EC50 (dead CFSE/7-AAD double positive THP-1 target cells; human pan T cells, effector:target 10:1, 20 h) [4]: 0.95 pM |
| 0.287 | – | anti-TNP-dsTrasKO2 × anti-CD123 Negative control (ID 44) (bispecific antibody, human IgG1, kappa, L234A L235A) light 1: not shown heavy 1: not shown heavy 2: EVQLQQSGPELVKPGASVKMSCKASGYTFTDYYMKWVKQSHGKSLEWIGDIIPSNGATFYNQKFKGKATLTVDRSSSTAYMHLNSLTSEDSAVYYCTRSHLLRASWFAYWGQGTLVTVSAASTKGPSVFPLAPSSKSTSGGTAALGCLVKDYFPEPVTVSWNSGALTSGVHTFPAVLQSSGLYSLSSVVTVPSSSLGTQTYICNVNHKPSNTKVDKKVEPKSCDKTHTCPPCPAPEAAGGPSVFLFPPKPKDTLMISRTPEVTCVVVDVSHEDPEVKFNWYVDGVEVHNAKTKPREEQYNSTYRVVSVLTVLHQDWLNGKEYKCKVSNKALPAPIEKTISKAKGQPREPQVCTLPPSRDELTKNQVSLSCAVKGFYPSDIAVEWESNGQPENNYKTTPPVLDSDGSFFLVSKLTVDKSRWQQGNVFSCSVMHEALHNRFTQKSLSLSPG light 2: DFVMTQSPSSLTVTAGEKVTMSCKSSQSLLNSGNQKNYLTWYLQKPGQPPKLLIYWASTRESGVPDRFTGSGSGTDFTLTISSVQAEDLAVYYCQNDYSYPYTFGGGTKLEIKRTVAAPSVFIFPPSDEQLKSGTASVVCLLNNFYPREAKVQWKVDNALQSGNSQESVTEQDSKDSTYSLSSTLTLSKADYEKHKVYACEVTHQGLSSPVTKSFNRGEC | – |
| – | no binding (tested: 100 nM) | dsTrasKO variant 1 (dsTrasKO1) (antibody, V domains shown, also called dsTrastuKO variant 1; Variant1 (TrasKO1) with VH44C/VL100C disulfide) VH: EVQLVESGGGLVQPGGSLRLSCAASGFNIKDTAIHWVRQAPGKCLEWVAEIYPTNGYTEYADSVKGRFTISADTSKNTAYLQMNSLRAEDTAVYYCSRWGGDGFAAMDYWGQGTLVTVSS VL: not shown | – |
| – | no binding (tested: 100 nM) | dsTrasKO variant 2 (dsTrasKO2) (antibody, V domains shown, also called dsTrastuKO variant 2; Variant2 (TrasKO2) with VH44C/VL100C disulfide) VH: EVQLVESGGGLVQPGGSLRLSCAASGFNIKDTYIHWVRQAPGKCLEWVAEIYPTNGYTEYADSVKGRFTISADTSKNTAYLQMNSLRAEDTAVYYCSRWGGDGFYAMDYWGQGTLVTVSS VL: not shown | – |
| – | no binding (tested: 100 nM) | dsTrasKO variant 3 (dsTrasKO3) (antibody, V domains shown, also called dsTrastuKO variant 3; Variant3 (TrasKO3) with VH44C/VL100C disulfide) VH: EVQLVESGGGLVQPGGSLRLSCAASGFNIKDTAIHWVRQAPGKCLEWVARIYPTNGYTRYADSVKGRFTISADTSKNTAYLQMNSLRAEDTAVYYCSRWGGDGFAAMDYWGQGTLVTVSS VL: not shown | – |
